Laboratory results published in US20030157644A1 (MOUNT SINAI SCHOOL OF MEDICINE OF THE CITY UNIVERSITY OF …, published 2003).
Ends that are not written are not given here.

Key:
phospholipase C-β2 [1] = biological target: T1, phospholipase C-β2 (human, UniProt Q00722 1-1185, Cascade Blue acetyl azide label on amines, labelling ratio 1:1 (FRET experiment only)); assay: cell-based or functional assay
phospholipase C-β2 [2] = biological target: T1, phospholipase C-β2; assay: fluorescence resonance energy transfer, DABMI-peptide and Cascade Blue-PLC-β2, with and without phospholipids
Method: The reaction was allowed to proceed for 30 minutes at room temperature before quenching with 5 mM DTT. The final labeling ratios, as determined by absorption, were 1:1 for CB-PLC-β2 and 0.8 for the two DABMI-peptides. Fluorescence spectra were taken on an ISS-PC7 (ISS Champaign, IL) photon counting spectrofluorometer using a 3×3 mm cuvette and exciting at 380 nm and scanning from 400-560 nm.
The stimulation by maximal concentration of peptide was non-additive with Gβγ stimulation (FIG. 5A, upper panel).

T1 sequence (Q00722 other isoform, or with tags, fused parts or gaps limits assumed): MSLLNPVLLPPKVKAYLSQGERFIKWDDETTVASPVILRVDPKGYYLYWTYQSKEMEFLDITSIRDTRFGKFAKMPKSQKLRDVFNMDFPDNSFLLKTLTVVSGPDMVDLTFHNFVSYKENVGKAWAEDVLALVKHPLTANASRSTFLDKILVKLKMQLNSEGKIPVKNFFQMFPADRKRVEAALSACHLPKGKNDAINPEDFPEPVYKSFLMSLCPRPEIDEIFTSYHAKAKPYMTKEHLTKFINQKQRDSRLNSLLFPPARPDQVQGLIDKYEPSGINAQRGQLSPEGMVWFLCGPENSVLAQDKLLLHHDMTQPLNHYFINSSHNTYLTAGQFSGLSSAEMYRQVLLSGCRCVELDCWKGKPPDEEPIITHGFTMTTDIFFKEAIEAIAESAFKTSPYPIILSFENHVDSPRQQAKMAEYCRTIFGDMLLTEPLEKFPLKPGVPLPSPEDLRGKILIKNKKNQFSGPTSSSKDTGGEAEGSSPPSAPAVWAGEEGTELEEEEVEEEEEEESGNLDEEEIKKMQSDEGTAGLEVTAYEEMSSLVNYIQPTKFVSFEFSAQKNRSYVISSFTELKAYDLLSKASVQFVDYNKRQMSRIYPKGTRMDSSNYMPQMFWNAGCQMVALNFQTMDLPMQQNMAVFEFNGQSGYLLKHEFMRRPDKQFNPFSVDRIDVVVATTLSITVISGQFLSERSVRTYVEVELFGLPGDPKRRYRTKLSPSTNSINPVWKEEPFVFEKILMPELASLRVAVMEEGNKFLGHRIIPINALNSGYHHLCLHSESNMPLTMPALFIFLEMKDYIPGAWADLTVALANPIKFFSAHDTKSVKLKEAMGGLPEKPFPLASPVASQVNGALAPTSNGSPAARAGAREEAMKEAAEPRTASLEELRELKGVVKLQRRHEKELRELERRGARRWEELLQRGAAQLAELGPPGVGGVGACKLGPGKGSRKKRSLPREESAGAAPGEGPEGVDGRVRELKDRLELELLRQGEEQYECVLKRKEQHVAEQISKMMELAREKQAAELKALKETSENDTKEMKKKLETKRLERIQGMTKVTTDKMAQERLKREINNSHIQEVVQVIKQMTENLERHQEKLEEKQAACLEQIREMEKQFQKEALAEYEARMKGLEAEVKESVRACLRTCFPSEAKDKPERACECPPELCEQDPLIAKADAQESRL

fold change in affinity of PLC-β2 stimulation against the Gβ 86-105 peptide (phospholipase C-β2 [1]) [fold]	binding result (phospholipase C-β2 [2])	Binder
~2	–	TTNKVHAIPLRSAWVMTCAY (not fully specified) [Gβ 86-105 peptide with S98 substituted with alanine]
5	–	TTNKVHAIPLRRRWVMTCAY [S97,98R Gβ 86-105 peptide]
–	no binding	TTNKVHAIPLRSSWVNTCAY (also: DABMI maleimide label in FRET experiment, residue not given here, Synthetic peptide; also called m-TTN) [Gβ 86-105 M101N substituted peptide]
